Target: HLA-A*02:01 (Homo sapiens, UniProt P04439, D140Y/D185E/D98H/E176V/E277Q/G131W/G231S/I119V/I121R/I166T/I218V/L300P/L318F/N151K/N90K/P208A/P217A/Q86G/Q94H/R138H/R169H/T345S)
Assay: MHC binding assay (UV-ligand exchange, ELISA of stabilized MHC complexes)
Settings: MHC class I binding score; binding to HLA-A*02:01 ranged by peptide exchange yield (UV-ligand exchange, ELISA)
In short: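 Binding scored as exchange yield, detected via β2m of stabilized complexes in an HRP/TMB ELISA read at 450 nm after streptavidin capture of 100-fold diluted monomers for 1 h at 37 °C. Complexes came from UV irradiation cleaving a photolabile peptide, exchanged for the candidate.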

Row | Substance | Peptide exchange
1 | 408 (VLDDSIYLV; listed as Homo sapiens) [compound 408] | ″++″ (≥20% = ++)
2 | 104 (STMEQNFLL; listed as Homo sapiens) [compound 104] | ″++++″ (≥75% = ++++)
3 | 84 (VTFGEKLLGV; listed as Homo sapiens) [compound 84] | ″++″ (≥20% = ++)
4 | 266 (KITDTLIHL; listed as Homo sapiens) [compound 266] | ″+++″ (≥50% = +++)
5 | 28 (QLLDETSAITL; listed as Homo sapiens) [compound 28] | ″+++″ (≥50% = +++)
6 | 194 (ALPLFVITV; listed as Homo sapiens) [compound 194] | ″+++″ (≥50% = +++)
7 | 317 (SLAALVVHV; listed as Homo sapiens) [compound 317] | ″+++″ (≥50% = +++)
8 | 78 (SLFSSLEPQIQPV; listed as Homo sapiens) [compound 78] | ″+++″ (≥50% = +++)
9 | 462 (KLAKQPETV; listed as Homo sapiens) [compound 462] | ″+++″ (≥50% = +++)
10 | 438 (KLLPLAGLYL; listed as Homo sapiens) [compound 438] | ″++++″ (≥75% = ++++)
11 | 485 (NVPDSFNEV; listed as Homo sapiens) [compound 485] | ″+++″ (≥50% = +++)
12 | 134 (YLQELIFSV; listed as Homo sapiens) [compound 134] | ″+++″ (≥50% = +++)
13 | 395 (ALALGGIAVV; listed as Homo sapiens) [compound 395] | ″++++″ (≥75% = ++++)
14 | 324 (FLYDEIEAEV; listed as Homo sapiens) [compound 324] | ″+++″ (≥50% = +++)
15 | 389 (LLADVTHLL; listed as Homo sapiens) [compound 389] | ″++″ (≥20% = ++)
16 | 585 (ALWDLAADKQTL; listed as Homo sapiens) [compound 585] | ″++++″ (≥75% = ++++)
17 | 181 (LLWAGTAFQV; listed as Homo sapiens) [compound 181] | ″+++″ (≥50% = +++)
18 | 101 (ILVGGGALATV; listed as Homo sapiens) [compound 101] | ″+++″ (≥50% = +++)
19 | 372 (TMLLNIPLV; listed as Homo sapiens) [compound 372] | ″++″ (≥20% = ++)
20 | 302 (ALLQEGEVYSA; listed as Homo sapiens) [compound 302] | ″+++″ (≥50% = +++)

Row | Substance | Peptide exchange
21 | 497 (GLLEKLTAI; listed as Homo sapiens) [compound 497] | ″+++″ (≥50% = +++)
22 | 171 (LLLPLQILL; listed as Homo sapiens) [compound 171] | ″+++″ (≥50% = +++)
23 | 17 (GLLPGDRLVSV; listed as Homo sapiens) [compound 17] | ″+++″ (≥50% = +++)
24 | 481 (GLIEDYEALL; listed as Homo sapiens) [compound 481] | ″+++″ (≥50% = +++)
25 | 190 (FLSSLTETI; listed as Homo sapiens) [compound 190] | ″+++″ (≥50% = +++)
26 | 362 (TLYGLSVLL; listed as Homo sapiens) [compound 362] | ″+++″ (≥50% = +++)
27 | 98 (LIIDQADIYL; listed as Homo sapiens) [compound 98] | ″+++″ (≥50% = +++)
28 | 6 (VLVSDGVHSV; listed as Homo sapiens) [compound 6] | ″+++″ (≥50% = +++)
29 | 20 (RMIEYFIDV; listed as Homo sapiens) [compound 20] | ″+++″ (≥50% = +++)
30 | 558 (GLLENIPRV; listed as Homo sapiens) [compound 558] | ″+++″ (≥50% = +++)
31 | 182 (MLLEAPGIFL; listed as Homo sapiens) [compound 182] | ″+++″ (≥50% = +++)
32 | 509 (FLFDTKPLIV; listed as Homo sapiens) [compound 509] | ″+++″ (≥50% = +++)
33 | 126 (VLAYFLPEA; listed as Homo sapiens) [compound 126] | ″++++″ (≥75% = ++++)
34 | 154 (ALDDGTPAL; listed as Homo sapiens) [compound 154] | ″++″ (≥20% = ++)
35 | 168 (KILDADIQL; listed as Homo sapiens) [compound 168] | ″++++″ (≥75% = ++++)
36 | 375 (SLTETIEGV; listed as Homo sapiens) [compound 375] | ″++″ (≥20% = ++)
37 | 587 (VMNDRLYAI; listed as Homo sapiens) [compound 587] | ″+++″ (≥50% = +++)
38 | 276 (ALFTFSPLTV; listed as Homo sapiens) [compound 276] | ″+++″ (≥50% = +++)
39 | 383 (ALLELENSVTL; listed as Homo sapiens) [compound 383] | ″+++″ (≥50% = +++)
40 | 567 (SLLPLDDIVRV; listed as Homo sapiens) [compound 567] | ″+++″ (≥50% = +++)

Row | Substance | Peptide exchange
41 | 59 (IMEDIILTL; listed as Homo sapiens) [compound 59] | ″+++″ (≥50% = +++)
42 | 436 (HLAEVSAEV; listed as Homo sapiens) [compound 436] | ″+++″ (≥50% = +++)
43 | 519 (GLLHLTLLL; listed as Homo sapiens) [compound 519] | ″+++″ (≥50% = +++)
44 | 524 (ALIENLTHQI; listed as Homo sapiens) [compound 524] | ″++″ (≥20% = ++)
45 | 192 (KMLDGASFTL; listed as Homo sapiens) [compound 192] | ″+++″ (≥50% = +++)
46 | 40 (TLLVKVFSV; listed as Homo sapiens) [compound 40] | ″+++″ (≥50% = +++)
47 | 128 (YLFDDPLSAV; listed as Homo sapiens) [compound 128] | ″++″ (≥20% = ++)
48 | 54 (SLLEQGKEPWMV; listed as Homo sapiens) [compound 54] | ″+++″ (≥50% = +++)
49 | 230 (ILVDWLVEV; listed as Homo sapiens) [compound 230] | ″+″ (≥10% = +)
50 | 370 (SLLQDLVSV; listed as Homo sapiens) [compound 370] | ″+++″ (≥50% = +++)
51 | 401 (ILLDDTGLAYI; listed as Homo sapiens) [compound 401] | ″+++″ (≥50% = +++)
52 | 212 (ALWDQDNLSV; listed as Homo sapiens) [compound 212] | ″++″ (≥20% = ++)
53 | 272 (ALGNTVPAV; listed as Homo sapiens) [compound 272] | ″+++″ (≥50% = +++)
54 | 4 (GIMEHITKI; listed as Homo sapiens) [compound 4] | ″++++″ (≥75% = ++++)
55 | 110 (FLSQVDFEL; listed as Homo sapiens) [compound 110] | ″+++″ (≥50% = +++)
56 | 569 (KLVDRTWTL; listed as Homo sapiens) [compound 569] | ″+++″ (≥50% = +++)
57 | 618 (VLFDSESIGIYV; listed as Homo sapiens) [compound 618] | ″+++″ (≥50% = +++)
58 | 288 (NLINEINGV; listed as Homo sapiens) [compound 288] | ″+++″ (≥50% = +++)
59 | 116 (YHIDEEVGF; listed as Homo sapiens) [compound 116] | ″+″ (≥10% = +)
